Usually stoichiometry N stands for a count of units in the complex or per binding partner.

The results in this text go back to article PMC6695400, “Diversity of oligomerization in Drosophila semaphorins suggests a mechanism of functional fine-tuning” (Nature Communications, 2019).

Data set [1] addresses Drosophila melanogaster PlexB1–4-mVenus (Drosophila melanogaster) (UniProt Q9V4A7). Description: MST; plexin-mVenus kept constant, unlabelled semaphorin titrated (1:1 dilution series); 25 °C; 15 mM HEPES pH 7.4, 150 mM NaCl, 2 mM CaCl2, 0.005% Tween-20; 1 h incubation at room temperature; apparent Kd.
The target in data set [2] is Drosophila melanogaster semaphorin-1a full-length ectodomain (Sema1a_(ecto)) (Drosophila melanogaster). Description: SEC-MALS; Superdex 200 Increase 10/300, 15 mM HEPES pH 7.4, 150 mM NaCl; with SDS-PAGE under reducing and non-reducing conditions; initial concentrations up to 2 mg/ml; monomer to dimer.
The target in data set [3] is Sema2b_(full) with the dimerization cysteine mutated to serine (Drosophila melanogaster). The data set is described as above.
In data set [4] the target is Drosophila melanogaster full-length secreted semaphorin-2b (Sema2b_(full)) (Drosophila melanogaster). The data set is described as above.
Data set [5] concerns the target T1, Drosophila melanogaster PlexA1–4-mVenus (Drosophila melanogaster, UniProt Q9V491 28-730).
T1 construct: Plexin A, Drosophila melanogaster, domains 1-4 of the ectodomain, residues 28Q-730T; source: HEK293T, transient transfection, purified (HisTrap, SEC); not shown: mVenus, C-terminal, kept
T1 sequence (looked up): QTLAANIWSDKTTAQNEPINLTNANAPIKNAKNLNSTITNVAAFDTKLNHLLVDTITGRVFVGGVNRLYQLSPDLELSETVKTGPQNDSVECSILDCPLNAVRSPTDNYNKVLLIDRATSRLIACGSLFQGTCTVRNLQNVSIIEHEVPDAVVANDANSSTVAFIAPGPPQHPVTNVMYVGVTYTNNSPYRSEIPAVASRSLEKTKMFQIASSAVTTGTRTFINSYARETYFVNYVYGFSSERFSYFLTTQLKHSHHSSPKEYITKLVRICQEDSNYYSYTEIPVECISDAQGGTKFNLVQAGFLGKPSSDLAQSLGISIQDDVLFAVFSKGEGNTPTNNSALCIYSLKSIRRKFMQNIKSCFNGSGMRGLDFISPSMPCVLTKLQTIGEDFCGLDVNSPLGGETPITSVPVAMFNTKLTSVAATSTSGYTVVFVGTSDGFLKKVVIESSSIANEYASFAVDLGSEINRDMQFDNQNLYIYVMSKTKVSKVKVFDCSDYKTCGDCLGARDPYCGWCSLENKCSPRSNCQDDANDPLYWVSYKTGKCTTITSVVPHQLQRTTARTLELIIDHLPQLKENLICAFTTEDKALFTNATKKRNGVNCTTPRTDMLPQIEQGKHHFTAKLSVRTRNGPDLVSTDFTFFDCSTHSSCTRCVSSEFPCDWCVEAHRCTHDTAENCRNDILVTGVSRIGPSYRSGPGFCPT
Description: MST; plexin-mVenus kept constant, unlabelled semaphorin titrated (1:1 dilution series); 25 °C; 15 mM HEPES pH 7.4, 150 mM NaCl, 2 mM CaCl2, 0.005% Tween-20; 1 h incubation at room temperature; apparent Kd.

Data set [6] concerns the molecule itself. Description: SEC-MALS; Superdex 200 Increase 10/300, 15 mM HEPES pH 7.4, 150 mM NaCl; with SDS-PAGE under reducing and non-reducing conditions; initial concentrations up to 2 mg/ml; monomer to dimer. For orientation: Size exclusion chromatography separates by hydrodynamic size, large species first.
In data set [7] the target is Drosophila melanogaster full-length secreted semaphorin-2b (Sema2b_(full)) (Drosophila melanogaster). Description: SEC-MALS; co-expressed heterodimer purified by HisTrap, StrepTactin and SEC; Superdex 200 Increase 10/300, 15 mM HEPES pH 7.4, 150 mM NaCl; with SDS-PAGE under reducing and non-reducing conditions.

Where two headings read alike, the source gives them in different places.

Chain of Drosophila melanogaster PlexB1–4-mVenus (Drosophila melanogaster) (Q9V4A7 35-730): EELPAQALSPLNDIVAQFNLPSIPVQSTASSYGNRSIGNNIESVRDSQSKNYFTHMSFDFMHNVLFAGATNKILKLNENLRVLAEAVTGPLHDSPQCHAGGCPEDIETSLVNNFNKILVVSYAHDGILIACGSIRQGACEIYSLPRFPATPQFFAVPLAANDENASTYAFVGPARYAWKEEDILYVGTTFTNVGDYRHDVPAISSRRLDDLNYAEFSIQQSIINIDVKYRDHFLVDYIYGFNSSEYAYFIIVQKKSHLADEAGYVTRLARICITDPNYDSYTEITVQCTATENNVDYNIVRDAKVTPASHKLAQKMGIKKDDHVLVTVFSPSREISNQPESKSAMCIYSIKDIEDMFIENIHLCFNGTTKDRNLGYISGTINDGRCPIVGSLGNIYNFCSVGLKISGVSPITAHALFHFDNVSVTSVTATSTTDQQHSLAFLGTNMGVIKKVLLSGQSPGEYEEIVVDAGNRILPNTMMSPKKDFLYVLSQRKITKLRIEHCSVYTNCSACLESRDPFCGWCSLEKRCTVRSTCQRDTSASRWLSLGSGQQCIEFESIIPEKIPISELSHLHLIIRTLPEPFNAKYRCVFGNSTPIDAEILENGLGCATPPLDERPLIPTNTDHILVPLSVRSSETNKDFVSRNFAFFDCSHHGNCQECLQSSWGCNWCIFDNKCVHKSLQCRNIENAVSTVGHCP

Turning to “Sema2a/2b heterodimer (Sema2a_(full)-TwinStrep with Sema2b_(full)-His6, disulfide-linked) (from UniProt Q24323 26-724) (complex)”, the Kd in data set [1] was 13 nM.

Consider “Drosophila melanogaster semaphorin-1a full-length ectodomain (Sema1a_(ecto)) (domain or fragment)”, for which the stoichiometry N in data set [2] amounted to 2.

For the molecule “Sema2b_(full) with the dimerization cysteine mutated to serine (ligand)”, the stoichiometry N in data set [3] is 2.

With “Drosophila melanogaster full-length secreted semaphorin-2b (Sema2b_(full)) (ligand)”, the stoichiometry N in data set [4] came to 2. Besides, the Kd in data set [1] was 3 nM.

“Fc-tagged dimerized Sema1a_(ecto) (Sema1a_(ecto)-Fc) (from UniProt Q24322 21-602) (Fc fusion)”: the Kd in data set [5] is 141 nM.

B1: Sema1b_(ecto) with phenylalanine 254 mutated to cysteine (domain or fragment, Drosophila melanogaster, UniProt Q7KK54 37-659, looked up)
chain: DVKPDLQTKQDKVLAHFIGNSTDYFKILDHNDEFVLVGAKDVIYNVSLNGLKEIARLEWHSTDADRELCALKGKHEWDCHNYLRVYALRPNGEVLLCGTNSYKPRCRHYTPVEVSSEEAGSAGHAHAMRYEVSRDVEAQGLCPYSPAHNSTYAFADGHLYSATVADFSGGDPLIYRENLRTEQYDLKQLNQPDFVGAIERNGYVLFFFRELSMEVMNCGKAVYSRVARVCKNDRGGPYSHGKSWTSFLKARLNCSVPGEFPFYFDEIQAISPIVESGSKSLIYAVFTTSVNAIPGSAVCAFNVDDILAAFDGEFKSQKDSQSHWLPVEREQVPKPRPGQCVEDSRTLTSIAVNFIKNHPLMEEAVPAVHGRPLLTKVNLHHRLTAIAVHPQVKSLSGAYYDVIYSGTDDGKVTKFINILSTHPNSTVDRLKTVVISEMQVLPLGTPIRELVISTSKNSLVVVSDGSLVSVPLHHCSHIVDCLGCLSLQDPICAWDLQTHECKNLATSQHKFGTKTYLQSLNSTKKAAALLCPHIPRDAPGAETVSFVTMAPPPTEEQKLLYSNVGSSQGNQPSLEQQPTGGDDFGLNKITLTSMDPDDIMPNLNDPQKSTASVDEIKYASTPS
notes: Semaphorin-1b, Drosophila melanogaster, ectodomain, residues 37D-659S, F254C; also called Sema1b_(ecto) F254C; source: HEK293T, transient transfection, purified (HisTrap, SEC)
Consider B1, for which the “stoichiometry N” value in data set [6] stood at 2.

B2: Drosophila melanogaster semaphorin-1b full-length ectodomain (Sema1b_(ecto)) (domain or fragment, UniProt Q7KK54 37-659, looked up)
chain: DVKPDLQTKQDKVLAHFIGNSTDYFKILDHNDEFVLVGAKDVIYNVSLNGLKEIARLEWHSTDADRELCALKGKHEWDCHNYLRVYALRPNGEVLLCGTNSYKPRCRHYTPVEVSSEEAGSAGHAHAMRYEVSRDVEAQGLCPYSPAHNSTYAFADGHLYSATVADFSGGDPLIYRENLRTEQYDLKQLNQPDFVGAIERNGYVLFFFRELSMEVMNFGKAVYSRVARVCKNDRGGPYSHGKSWTSFLKARLNCSVPGEFPFYFDEIQAISPIVESGSKSLIYAVFTTSVNAIPGSAVCAFNVDDILAAFDGEFKSQKDSQSHWLPVEREQVPKPRPGQCVEDSRTLTSIAVNFIKNHPLMEEAVPAVHGRPLLTKVNLHHRLTAIAVHPQVKSLSGAYYDVIYSGTDDGKVTKFINILSTHPNSTVDRLKTVVISEMQVLPLGTPIRELVISTSKNSLVVVSDGSLVSVPLHHCSHIVDCLGCLSLQDPICAWDLQTHECKNLATSQHKFGTKTYLQSLNSTKKAAALLCPHIPRDAPGAETVSFVTMAPPPTEEQKLLYSNVGSSQGNQPSLEQQPTGGDDFGLNKITLTSMDPDDIMPNLNDPQKSTASVDEIKYASTPS
notes: Semaphorin-1b, Drosophila melanogaster, ectodomain, residues 37D-659S; Monomer in solution; source: HEK293T (30 °C), transient transfection, purified (HisTrap, SEC)
Regarding B2, the Kd in data set [5] (both partners purified) was found to be 586 ± 134 nM.

B3: Drosophila melanogaster full-length secreted semaphorin-2a (Sema2a_(full)) (ligand, UniProt Q24323 26-724, looked up)
chain: DYENTWNFYYERPCCTGNDQGNNNYGKHGADHVREFNCGKLYYRTFHMNEDRDTLYVGAMDRVFRVNLQNISSSNCNRDVINLEPTRDDVVSCVSKGKSQIFDCKNHVRVIQSMDQGDRLYVCGTNAHNPKDYVIYANLTHLPRSEYVIGVGLGIAKCPYDPLDNSTAIYVENGNPGGLPGLYSGTNAEFTKADTVIFRTDLYNTSAKRLEYKFKRTLKYDSKWLDKPNFVGSFDIGEYVYFFFRETAVEYINCGKAVYSRIARVCKKDVGGKNLLAHNWATYLKARLNCSISGEFPFYFNEIQSVYQLPSDKSRFFATFTTSTNGLIGSAVCSFHINEIQAAFNGKFKEQSSSNSAWLPVLNSRVPEPRPGTCVNDTSNLPDTVLNFIRSHPLMDKAVNHEHNNPVYYKRDLVFTKLVVDKIRIDILNQEYIVYYVGTNLGRIYKIVQYYRNGESLSKLLDIFEVAPNEAIQVMEISQTRKSLYIGTDHRIKQIDLAMCNRRYDNCFRCVRDPYCGWDKEANTCRPYELDLLQDVANETSDICDSSVLKKKIVVTYGQSVHLGCFVKIPEVLKNEQVTWYHHSKDKGRYEIRYSPTKYIETTERGLVVVSVNEADGGRYDCHLGGSLLCSYNITVDAHRCTPPNKSNDYQKIYSDWCHEFEKYKTAMKSWEKKQAQCSTRQNFSSNQHPNEIFRKPNV
notes: Semaphorin-2a, Drosophila melanogaster, residues 26D-724V; Disulfide-linked dimer in solution; source: HEK293T (37 °C), transient transfection, purified (HisTrap, SEC)
Turning to B3, the entries for the “stoichiometry N” value in data set [6] and in data set [7] were 2 and 1, respectively.

B4: Sema2a_(full) with the dimerization cysteine (Cys279) mutated to serine (ligand, Drosophila melanogaster, UniProt Q24323 26-724, looked up)
chain: DYENTWNFYYERPCCTGNDQGNNNYGKHGADHVREFNCGKLYYRTFHMNEDRDTLYVGAMDRVFRVNLQNISSSNCNRDVINLEPTRDDVVSCVSKGKSQIFDCKNHVRVIQSMDQGDRLYVCGTNAHNPKDYVIYANLTHLPRSEYVIGVGLGIAKCPYDPLDNSTAIYVENGNPGGLPGLYSGTNAEFTKADTVIFRTDLYNTSAKRLEYKFKRTLKYDSKWLDKPNFVGSFDIGEYVYFFFRETAVEYINSGKAVYSRIARVCKKDVGGKNLLAHNWATYLKARLNCSISGEFPFYFNEIQSVYQLPSDKSRFFATFTTSTNGLIGSAVCSFHINEIQAAFNGKFKEQSSSNSAWLPVLNSRVPEPRPGTCVNDTSNLPDTVLNFIRSHPLMDKAVNHEHNNPVYYKRDLVFTKLVVDKIRIDILNQEYIVYYVGTNLGRIYKIVQYYRNGESLSKLLDIFEVAPNEAIQVMEISQTRKSLYIGTDHRIKQIDLAMCNRRYDNCFRCVRDPYCGWDKEANTCRPYELDLLQDVANETSDICDSSVLKKKIVVTYGQSVHLGCFVKIPEVLKNEQVTWYHHSKDKGRYEIRYSPTKYIETTERGLVVVSVNEADGGRYDCHLGGSLLCSYNITVDAHRCTPPNKSNDYQKIYSDWCHEFEKYKTAMKSWEKKQAQCSTRQNFSSNQHPNEIFRKPNV
notes: Semaphorin-2a, Drosophila melanogaster, residues 26D-724V, Cys279 to serine; also called Sema2a_(full) Cys to Ser mutant; source: HEK293T, transient transfection, purified (HisTrap, SEC)
Regarding B4, in data set [6], the “stoichiometry N” value came out at 2.
